The target in one data set is T1, KCTD11^BTB (Homo sapiens, UniProt Q693B1).
T1 construct: tetrameric BTB domain of KCTD11^BTB (residues 15–116) was generated; thioredoxin A (TrxA); made in house
T1 sequence (Q693B1 15-116 isoform Q693B1-2): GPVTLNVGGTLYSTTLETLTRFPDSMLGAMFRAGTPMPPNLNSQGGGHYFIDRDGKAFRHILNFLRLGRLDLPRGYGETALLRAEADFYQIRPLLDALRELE
The data set can be described thus: ELISA binding of biotinylated peptides to His-TrxA-KCTD11^BTB. The note with it: 0.8 μM biotinylated peptide on streptavidin-coated wells; His-TrxA-KCTD11^BTB 0.4-15.6 μM in PBS; anti-His/HRP read at 490 nm; mean of triplicate experiments. On the procedure: For ELISA assays, 5 μg/mL streptavidin in phosphate/citrate buffer pH 5.0 was incubated overnight at 37°C for coating. Firstly, wells were coated with 0.8 μM biotinylated Cul3^49-68 peptides in phosphate buffered saline (PBS) 1X for 1 h at room temperature. Binding step was performed with increasing concentrations (0.4, 0.75, 1.5, 3.8, 7.6 and 15.6 μM) of His-TrxA- KCTD11^BTB in PBS 1X. His-TrxA was used as negative control in the same concentrations. As blocking solution 3% gelatine, 0.05% Tween-20 in PBS 1X was used for 1 h at 37°C. Washes were executed with PBS 1X. To reveal the occurred interaction mouse anti-His monoclonal antibody was incubated in 1:1000 dilution at room temperature for 2 h; then, horseradish peroxidase-conjugated anti-mouse antibody (Pierce) was diluted 1:10000 in 1% gelatin, PBS 1X and incubated at 20°C for 1 h. The colorimetric reaction has been carried out with SIGMAFAST OPD reagent (Sigma Aldrich), according to the manufacturer’s instructions. Finally, a Model 680 Microplate Reader (Bio-Rad, Hercules, CA-USA) has been used for readings at 490 nm; data were processed by a Microplate Manager 5.2 program. The reported data are mean values of triplicate experiments.
On the technique in general: In an ELISA, binding on a coated surface is turned into a signal by an enzyme label.

Data set [1] in a line: Serum stability followed by LC-MS. Type of data set: in vitro ADME. As to conditions: 25% human serum, 37°C, peptide 0.3 μM, time points 0, 60, 120, 180, 360 and 900 min, TFA precipitation, LC-MS read-out, triplicate. How it is done:
Human serum (Sigma Aldrich-Italy) was centrifuged at 13000 rpm for 10 min to remove lipids;the supernatant was collected and incubated at 37°C for at least 15 min. The assay started upon the addition of the peptides to the 25% serum for a final peptide concentration of 0.3 μM.
200 μL aliquots of the samples were taken after the following time points: 0, 60, 120, 180, 360 and 900 min. The aliquots were mixed with 100 μL of 15% TFA and incubated at 4°C for at least 15 min to induce the precipitation of the serum proteins. The supernatants were collected for each sample after centrifugation at 13000 rpm for 10 min and stored at -20°C.
The serum stability of peptides was followed by LC-MS analysis. using a Phenomenex Jupiter C4 (150 × 2 mm; 5 μm; 300 Å) and a method consisting of an isocratic step with H2O (0.1% TFA)/CH3CN (0.1% TFA) (70:30) for 10 min and a linear gradient of H2O (0.1% TFA)/CH3CN (0.1% TFA) from 30 to 80% of CH3CN (0.1% TFA) in 20 min at flow rate of 200 μL/min.
The assays were performed in triplicate.

The nature of data set [2]: Human serum (Sigma Aldrich-Italy), 25% serum. The note with it: 37°C, up to 900 min.
For a further data set, the target named is T2, KCTD5^BTB (UniProt Q9NXV2 44-145).
T2 construct: KCTD5, folded BTB domain, residues 44-145; also called BTB of the pentameric KCTD5; pentameric KCTD5^BTB; source: recombinant from the pET28/KCTD5^BTB plasmid, expressed and purified as elsewhere reported [33, 34]
Description: fluorescence polarisation; 1 uM FITC-Cul3^49-68LA, KCTD5^BTB over 0.1 nM to 5 uM; triplicates. As to conditions: both partners purified.

A further data set deals with T3, His-TrxA-KCTD11^BTB (UniProt Q693B1-2 15-116).
T3 construct: KCTD11, folded BTB region of the long form (isoform 2, UniProt Q693B1-2); residues 15-116 are stated for KCTD11^BTB in the modelling paragraph; numbers count on: the long form (isoform 2); The tags are named and used for detection in the ELISA; also called recombinant KCTD11^BTB; BTB of the tetrameric KCTD11; source: recombinant fusion protein with thioredoxin A, expressed and purified as …
T3 sequence (looked up): T1 sequence (Q693B1 15-116 isoform Q693B1-2)
Description: fluorescence polarisation; 2 uM FITC-peptide, KCTD11^BTB added at increasing concentration (0.1-15 uM in the methods; 0.1 nM to 20 uM in the legend); KCTD11^BTB concentration as monomer; triplicates. As to conditions: both partners purified. In general terms: Polarisation of emitted light reports the rotation of a fluorescent probe.

We go through seven molecules from PMC4388676 (PLoS ONE, 2015).

“Also recorded” adds a separate entry of the source. Bridge positions count the residues as written; N and C are the ends. Square brackets hold non-standard residues; d marks the D form. Ends that are not written are not given here. Peptide text beside a SMILES is read from it. * marks the point of attachment. FITC = O=C1OC2(c3ccc(O)cc3Oc3cc(O)ccc32)c2ccc(NC(=S)*)cc21; S5 = C=CCCC[C@](C)(N)C(=O)O

T2 sequence (Q9NXV2 44-145): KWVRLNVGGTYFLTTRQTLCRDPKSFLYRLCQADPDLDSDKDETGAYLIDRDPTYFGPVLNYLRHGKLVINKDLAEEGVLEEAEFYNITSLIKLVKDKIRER

“Cul3^49-68AA: non-stapled variant of Cul3^49-68 in which Tyr58 and Tyr62 were replaced with Ala residues (NSGLSFEELARNAATMVLHK-NH2; not fully specified (N-terminus))”: the “Binding to recombinant KCTD11^BTB, qualitatively checked by ELISA” value in the data set with KCTD11^BTB was “No relevant binding; also recorded: completely unable to bind KCTD11^BTB”.

As for `CSCC[C@H](NC(=O)[C@@H](NC(=O)[C@H](Cc1ccc(O)cc1)NC(=O)[C@H](C)NC(=O)[C@H](CC(N)=O)NC(=O)[C@H](CCCNC(=N)N)NC(=O)[C@H](Cc1ccc(O)cc1)NC(=O)[C@]1(C)CCCC=CCCC[C@](C)(NC(=O)[C@H](CC(C)C)NC(=O)CNC(=O)[C@H](CO)NC(=O)[C@H](CC(N)=O)NC(C)=O)C(=O)N[C@@H](Cc2ccccc2)C(=O)N[C@@H](CCC(=O)O)C(=O)N[C@@H](CCC(=O)O)C(=O)N1)[C@@H](C)O)C(=O)N[C@H](C(=O)N[C@@H](CC(C)C)C(=O)N[C@@H](Cc1c[nH]cn1)C(=O)N[C@@H](CCCCN)C(N)=O)C(C)C` [Cul3^49-68SL] (Ac-NSGL[S5]FEE[S5]YRNAYTMVLHK-NH2; staple 5-9), the “Estimate t1/2 in serum” value in data set [1] is roughly 7 h.

For “Ac-NSGLSFEELYRNAYTMVLHK-NH2 [Cul3^49-68]”, in data set [1] (read-out: Estimate t1/2 in serum (converted)), the half-life at 0.3 μM is 7 h.

For Ac-NSGLSFEELYRNAYTMVLHK-NH2, in data set [2], the cleaved bond result is recorded as “Tyr58-Arg59, major” and the fragment found result is given as “NAYTMVLHK-NH 2; also recorded: Ac-NSGLSFEELYR”.

B1: FITC-Cul3^49-68LA (peptide)
chain: {FITC}-NSGLSFEE[S5]YRN[S5]YTMVLHK-NH2
modifications: staple 9-13
In general, Kd refers to the free concentration of one partner at which half of the binding sites on the other are occupied at equilibrium, for simple one-to-one binding. Read a high Kd as weaker binding. B1: the Kd with KCTD5^BTB is 97 nM; in the data set with His-TrxA-KCTD11^BTB, 305 nM.

B2: FITC-Cul3^49-68 (peptide)
peptide: {FITC}-NSGLSFEELYRNAYTMVLHK-NH2
notes: Cullin 3 (Cul3), first part of the peptide 49-68; Cullin 3 (Cul3), second part of the peptide 49-68; also called wild-type peptide; source: synthetic peptide (solid phase, Fmoc), RP-HPLC purified
In the data set with His-TrxA-KCTD11^BTB, B2 gave a Kd of 497 nM.

B3: FITC-Cul3^49-68EN (peptide)
chain: {FITC}-NSGLSFE[S5]LYR[S5]AYTMVLHK-NH2
modifications: staple 8-12
For the molecule B3, the Kd with His-TrxA-KCTD11^BTB amounted to 620 nM.
